In publication PMC11538452 (Nature Communications, 2024) one finds binding result and Kd data, which are given here for four molecules.

What is called Kd is the constant that tells how readily two partners part at equilibrium. Read a high Kd as a looser complex.

One assay concerns the target pTag_(12aa) (Clostridium tetani, tetanus …). The assay is described as follows: SPR; […]; 25 °C, HBS with 0.05% Tween20, pH 7.5; Biacore T200, 1:1 Langmuir model. To be noted: both partners purified. Background: Surface plasmon resonance follows binding to a sensor surface in real time, without labels.
Assay [1] has as its target T1, pTag_(18aa) (original 18 amino acid peptide tag) (Clostridium tetani, tetanus …). The description is as above. To be noted: both partners purified.
For assay [2], the target named is T2, pTag9aa (free, without cargo) (Clostridium tetani, tetanus …).
For assay [3], the target named is T1, pTag_(18aa) (original 18 amino acid …).
Assay [4] deals with T2, pTag9aa (free, without cargo). The assay is described as follows: SPR; […]; 25 °C, HBS with 0.05% Tween20, pH 7.5; Biacore T200, 1:1 Langmuir model. To be noted: both partners purified.
The target of another assay is T3, human CD40-Fc (human, UniProt P25942).
T3 construct: also called hCD40-Fc
The assay is described as follows: SPR; wildtype against deimmunized variant on the CD40 protein (Supplementary Fig. 3B); format of this experiment not told in what was shown. To be noted: both partners purified.

Numbering of substitutions follows the chain as printed. Where two headings read alike, the source gives them in different places.

T3 sequence (P25942 21-193): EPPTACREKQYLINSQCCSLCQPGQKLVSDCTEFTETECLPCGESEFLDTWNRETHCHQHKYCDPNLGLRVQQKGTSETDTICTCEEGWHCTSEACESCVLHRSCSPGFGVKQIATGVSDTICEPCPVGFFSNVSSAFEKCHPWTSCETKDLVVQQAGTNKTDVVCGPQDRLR

B1: murine anti-pTag scFv (scFv, V domains shown)
VH: EVRLLQSGAALVRPGASVKLSCTASGFNIKDFNIHWVKQRPEQGLEWIGRIDPENGDAEYVPKFQVRATMTTDTSSNTVYLHLSSLTSGDTAVYYCTTGSYDLDVEYWGQGTTLTVSS
VL: ELQMTQSPSSLSASLGDTVTITCHASQNINVWLSWYQQRPGNIPKLLIYKASTLHTGVPSRFRGSGSGTGFTLTISSLQPEDIATYYCQQGQSYPLTFGAGTKLELK
notes: also called murine scFv; mscFv
Take B1: the binding result with pTag_(12aa) is on record as “binds”. For the same molecule, the Kd in assay [1] amounted to 4 nM.

B2: BiA9*2_HF (antibody, V domains shown)
VH: QVQLVQSGAEVKKPGASVKVSCKASGFNIKDFNIHWVRQAPGQGLEWIGRIDPENGDAEYVPKFQGRVTMTRDTSTSTVYMELSSLRSEDTAVYYCTTGSYDLDVEYWGQGTLVTVSS
VL: DIQMTQSPSSLSASVGDRVTITCHASQNINVWLSWYQQKPGKAPKLLIYKASTLHTGVPSRFSGSGSGTDFTLTISSLQPEDFATYYCQQGQSYPLTFGQGTKLEIK
For the molecule B2, the binding result in assay [2] and in assay [3] was “binds” in each case.

B3:  (scFv, V domains shown)
VH: B2 VH with N55S
VL: B2 VL
notes: also called humanized scFv; humanized single chain clone SG; source: E. coli, purified (Ni-NTA)
With B3, the binding result (with pTag_(12aa); in assay [4]; in assay [1]) was “binds” throughout.

B4: A9 anti-CD40 antibody, wildtype variant (before deimmunization) (antibody, V domains shown)
VH: EVQLLESGGGLVQPGGSLRLSCAASGFTFSSYAMSWVRQAPGKGLEWVSGISGYSGSTYYADSVKGRFTISRDNSKNTLYLQMNSLRAEDTAVYYCARYYSYYGYYYFDYWGQGTLVTVSS
VL: DIQMTQSPSSLSASVGDRVTITCRASQSISSYLNWYQQKPGKAPKLLIYAASSLQSGVPSRFSGSGSGTDFTLTISSLQPEDFATYYCQQGYPYPFTFGQGTKLEIK
notes: also called WT; original variant
For B4, in the assay with human CD40-Fc, binding was characterised by a dissociation constant (Kd) of 3.4 nM.
